The target in series [1] is Influenza A virus hemagglutinin fused to mEGFP (HA-wt-mEGFP) (Influenza A virus).
Series [2] concerns the molecule itself. As to the kind of experiment: Number&Brightness analysis (fluorescence fluctuation spectroscopy, molecular brightness); living U2OS cells expressing the mEGFP fusion; brightness normalised to 1xmEGFP and corrected for non-fluorescent mEGFP with pf = 0.72 from 2xmEGFP.

By stoichiometry N is commonly meant the number of molecules, sites or subunits per partner or assembly.

In series [1], “Influenza A virus hemagglutinin fused to mEGFP (HA-wt-mEGFP) (natural protein)” came in with a stoichiometry N of 3.17.

B1: E. coli glutamine synthetase fused to mEGFP (GlnA-mEGFP) (enzyme, UniProt P0A9C5 1-469, looked up)
chain: MSAEHVLTMLNEHEVKFVDLRFTDTKGKEQHVTIPAHQVNAEFFEEGKMFDGSSIGGWKGINESDMVLMPDASTAVIDPFFADSTLIIRCDILEPGTLQGYDRDPRSIAKRAEDYLRSTGIADTVLFGPEPEFFLFDDIRFGSSISGSHVAIDDIEGAWNSSTQYEGGNKGHRPAVKGGYFPVPPVDSAQDIRSEMCLVMEQMGLVVEAHHHEVATAGQNEVATRFNTMTKKADEIQIYKYVVHNVAHRFGKTATFMPKPMFGDNGSGMHCHMSLSKNGVNLFAGDKYAGLSEQALYYIGGVIKHAKAINALANPTTNSYKRLVPGYEAPVMLAYSARNRSASIRIPVVSSPKARRIEVRFPDPAANPYLCFAALLMAGLDGIKNKIHPGEAMDKNLYDLPPEEAKEIPQVAGSLEEALNELDLDREFLKAGGVFTDEAIDAYIALRREEDDRVRMTPHPVEFELYYSV
notes: also called GlnA complex; copies: 12
With B1, the “stoichiometry N” value in series [2] came to 11.9.

(Values after paper PMC6045628 (Scientific Reports, 2018).)
